The chains are these.
B1: GpH7-A5/GpH7-B3 variant S239_18N/GpL16-k0 (heterodimerized antibody, He Ab) (antibody, human IgG1, kappa)
heavy 1: not shown
heavy 2: not shown
light: DIVMTQSPLSLPVTPGEPASISCQASESLVHSNRNTYLHWYLQKPGQSPQLLIYKVSNRFSGVPDRFSGSGSGTDFTLKISRVEAEDVGVYYCSQNTHVPPTFGQGTKVEIERTVAAPSVFIFPPSDEQLKSGTASVVCLLNNFYPREAKVQWKVDNALQSGNSQESVTEQDSKDSTYSLSSTLTLSKADYEKHKVYACEVTHQGLSSPVTKSFNRGEC
notes: Mutation in one H chain only; also called S239_18N He Ab
B2: GpH7-A5/GpH7-B3 variant S298_03V/GpL16-k0 (heterodimerized antibody, He Ab) (antibody, human IgG1, kappa)
heavy 1: not shown
heavy 2: not shown
light: DIVMTQSPLSLPVTPGEPASISCQASESLVHSNRNTYLHWYLQKPGQSPQLLIYKVSNRFSGVPDRFSGSGSGTDFTLKISRVEAEDVGVYYCSQNTHVPPTFGQGTKVEIERTVAAPSVFIFPPSDEQLKSGTASVVCLLNNFYPREAKVQWKVDNALQSGNSQESVTEQDSKDSTYSLSSTLTLSKADYEKHKVYACEVTHQGLSSPVTKSFNRGEC
notes: Mutation in one H chain only; also called S298_03V He Ab
B3: GpH7-A5/GpH7-B3 variant T335_09D/GpL16-k0 (heterodimerized antibody, He Ab) (antibody, human IgG1, kappa)
heavy 1: not shown
heavy 2: not shown
light: DIVMTQSPLSLPVTPGEPASISCQASESLVHSNRNTYLHWYLQKPGQSPQLLIYKVSNRFSGVPDRFSGSGSGTDFTLKISRVEAEDVGVYYCSQNTHVPPTFGQGTKVEIERTVAAPSVFIFPPSDEQLKSGTASVVCLLNNFYPREAKVQWKVDNALQSGNSQESVTEQDSKDSTYSLSSTLTLSKADYEKHKVYACEVTHQGLSSPVTKSFNRGEC
notes: Mutation in one H chain only; also called T335_09D He Ab
B4: GpH7-A5/GpH7-B3 variant S337_16H/GpL16-k0 (heterodimerized antibody, He Ab) (antibody, human IgG1, kappa)
heavy 1: not shown
heavy 2: not shown
light: DIVMTQSPLSLPVTPGEPASISCQASESLVHSNRNTYLHWYLQKPGQSPQLLIYKVSNRFSGVPDRFSGSGSGTDFTLKISRVEAEDVGVYYCSQNTHVPPTFGQGTKVEIERTVAAPSVFIFPPSDEQLKSGTASVVCLLNNFYPREAKVQWKVDNALQSGNSQESVTEQDSKDSTYSLSSTLTLSKADYEKHKVYACEVTHQGLSSPVTKSFNRGEC
notes: Mutation in one H chain only; also called S337_16H He Ab
B5: GpH7-A5/GpH7-B3 variant Y296_20W/GpL16-k0 (heterodimerized antibody, He Ab) (antibody, human IgG1, kappa)
heavy 1: not shown
heavy 2: not shown
light: DIVMTQSPLSLPVTPGEPASISCQASESLVHSNRNTYLHWYLQKPGQSPQLLIYKVSNRFSGVPDRFSGSGSGTDFTLKISRVEAEDVGVYYCSQNTHVPPTFGQGTKVEIERTVAAPSVFIFPPSDEQLKSGTASVVCLLNNFYPREAKVQWKVDNALQSGNSQESVTEQDSKDSTYSLSSTLTLSKADYEKHKVYACEVTHQGLSSPVTKSFNRGEC
notes: Mutation in one H chain only; also called Y296_20W He Ab
B6: GpH7-A5/GpH7-B3 variant T335_05P/GpL16-k0 (heterodimerized antibody, He Ab) (antibody, human IgG1, kappa)
heavy 1: not shown
heavy 2: not shown
light: DIVMTQSPLSLPVTPGEPASISCQASESLVHSNRNTYLHWYLQKPGQSPQLLIYKVSNRFSGVPDRFSGSGSGTDFTLKISRVEAEDVGVYYCSQNTHVPPTFGQGTKVEIERTVAAPSVFIFPPSDEQLKSGTASVVCLLNNFYPREAKVQWKVDNALQSGNSQESVTEQDSKDSTYSLSSTLTLSKADYEKHKVYACEVTHQGLSSPVTKSFNRGEC
notes: Mutation in one H chain only; also called T335_05P He Ab
B7: GpH7-A5/GpH7-B3 variant T335_08L/GpL16-k0 (heterodimerized antibody, He Ab) (antibody, human IgG1, kappa)
heavy 1: not shown
heavy 2: not shown
light: DIVMTQSPLSLPVTPGEPASISCQASESLVHSNRNTYLHWYLQKPGQSPQLLIYKVSNRFSGVPDRFSGSGSGTDFTLKISRVEAEDVGVYYCSQNTHVPPTFGQGTKVEIERTVAAPSVFIFPPSDEQLKSGTASVVCLLNNFYPREAKVQWKVDNALQSGNSQESVTEQDSKDSTYSLSSTLTLSKADYEKHKVYACEVTHQGLSSPVTKSFNRGEC
notes: Mutation in one H chain only; also called T335_08L He Ab
B8: GpH7-A5/GpH7-B3 variant S324_20W/GpL16-k0 (heterodimerized antibody, He Ab) (antibody, human IgG1, kappa)
heavy 1: not shown
heavy 2: not shown
light: DIVMTQSPLSLPVTPGEPASISCQASESLVHSNRNTYLHWYLQKPGQSPQLLIYKVSNRFSGVPDRFSGSGSGTDFTLKISRVEAEDVGVYYCSQNTHVPPTFGQGTKVEIERTVAAPSVFIFPPSDEQLKSGTASVVCLLNNFYPREAKVQWKVDNALQSGNSQESVTEQDSKDSTYSLSSTLTLSKADYEKHKVYACEVTHQGLSSPVTKSFNRGEC
notes: Mutation in one H chain only; also called S324_20W He Ab
B9: GpH7-A5/GpH7-B3 variant S324_06M/GpL16-k0 (heterodimerized antibody, He Ab) (antibody, human IgG1, kappa)
heavy 1: not shown
heavy 2: not shown
light: DIVMTQSPLSLPVTPGEPASISCQASESLVHSNRNTYLHWYLQKPGQSPQLLIYKVSNRFSGVPDRFSGSGSGTDFTLKISRVEAEDVGVYYCSQNTHVPPTFGQGTKVEIERTVAAPSVFIFPPSDEQLKSGTASVVCLLNNFYPREAKVQWKVDNALQSGNSQESVTEQDSKDSTYSLSSTLTLSKADYEKHKVYACEVTHQGLSSPVTKSFNRGEC
notes: Mutation in one H chain only; also called S324_06M He Ab
B10: GpH7-A5/GpH7-B3 variant S324_09D/GpL16-k0 (heterodimerized antibody, He Ab) (antibody, human IgG1, kappa)
heavy 1: not shown
heavy 2: not shown
light: DIVMTQSPLSLPVTPGEPASISCQASESLVHSNRNTYLHWYLQKPGQSPQLLIYKVSNRFSGVPDRFSGSGSGTDFTLKISRVEAEDVGVYYCSQNTHVPPTFGQGTKVEIERTVAAPSVFIFPPSDEQLKSGTASVVCLLNNFYPREAKVQWKVDNALQSGNSQESVTEQDSKDSTYSLSSTLTLSKADYEKHKVYACEVTHQGLSSPVTKSFNRGEC
notes: Mutation in one H chain only; also called S324_09D He Ab
B11: GpH7-A5/GpH7-B3 variant Y300_08L/GpL16-k0 (heterodimerized antibody, He Ab) (antibody, human IgG1, kappa)
heavy 1: not shown
heavy 2: not shown
light: DIVMTQSPLSLPVTPGEPASISCQASESLVHSNRNTYLHWYLQKPGQSPQLLIYKVSNRFSGVPDRFSGSGSGTDFTLKISRVEAEDVGVYYCSQNTHVPPTFGQGTKVEIERTVAAPSVFIFPPSDEQLKSGTASVVCLLNNFYPREAKVQWKVDNALQSGNSQESVTEQDSKDSTYSLSSTLTLSKADYEKHKVYACEVTHQGLSSPVTKSFNRGEC
notes: Mutation in one H chain only; also called Y300_08L He Ab
B12: GpH7-A5/GpH7-B3 variant S337_01G/GpL16-k0 (heterodimerized antibody, He Ab) (antibody, human IgG1, kappa)
heavy 1: not shown
heavy 2: not shown
light: DIVMTQSPLSLPVTPGEPASISCQASESLVHSNRNTYLHWYLQKPGQSPQLLIYKVSNRFSGVPDRFSGSGSGTDFTLKISRVEAEDVGVYYCSQNTHVPPTFGQGTKVEIERTVAAPSVFIFPPSDEQLKSGTASVVCLLNNFYPREAKVQWKVDNALQSGNSQESVTEQDSKDSTYSLSSTLTLSKADYEKHKVYACEVTHQGLSSPVTKSFNRGEC
notes: Mutation in one H chain only; also called S337_01G He Ab
B13: GpH7-A5/GpH7-B3 variant S324_14T/GpL16-k0 (heterodimerized antibody, He Ab) (antibody, human IgG1, kappa)
heavy 1: not shown
heavy 2: not shown
light: DIVMTQSPLSLPVTPGEPASISCQASESLVHSNRNTYLHWYLQKPGQSPQLLIYKVSNRFSGVPDRFSGSGSGTDFTLKISRVEAEDVGVYYCSQNTHVPPTFGQGTKVEIERTVAAPSVFIFPPSDEQLKSGTASVVCLLNNFYPREAKVQWKVDNALQSGNSQESVTEQDSKDSTYSLSSTLTLSKADYEKHKVYACEVTHQGLSSPVTKSFNRGEC
notes: Mutation in one H chain only; also called S324_14T He Ab
B14: GpH7-A5/GpH7-B3 variant T335_06M/GpL16-k0 (heterodimerized antibody, He Ab) (antibody, human IgG1, kappa)
heavy 1: not shown
heavy 2: not shown
light: DIVMTQSPLSLPVTPGEPASISCQASESLVHSNRNTYLHWYLQKPGQSPQLLIYKVSNRFSGVPDRFSGSGSGTDFTLKISRVEAEDVGVYYCSQNTHVPPTFGQGTKVEIERTVAAPSVFIFPPSDEQLKSGTASVVCLLNNFYPREAKVQWKVDNALQSGNSQESVTEQDSKDSTYSLSSTLTLSKADYEKHKVYACEVTHQGLSSPVTKSFNRGEC
notes: Mutation in one H chain only; also called T335_06M He Ab

The target in the experiment is T1, FcγRIIIa extracellular domain with C-terminal His tag (human, UniProt P08637 17-208).
T1 construct: extracellular domain; also called 3a; FcgRIIIa
T1 sequence (P08637 17-208): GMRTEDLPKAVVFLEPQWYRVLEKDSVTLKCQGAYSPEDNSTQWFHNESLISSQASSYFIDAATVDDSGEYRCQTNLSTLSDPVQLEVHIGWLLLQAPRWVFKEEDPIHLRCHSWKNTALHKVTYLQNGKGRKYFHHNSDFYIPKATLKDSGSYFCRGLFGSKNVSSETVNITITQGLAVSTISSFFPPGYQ
Kind of experiment: SPR (Biacore), antibody captured on antigen-peptide chip, FcγR analyte, relative binding. On the technique in general: SPR reads the build-up and loss of mass on a sensor chip optically.
Consider B1, for which the He/Con_3a is 110 % of GpH7-A5/GpH7-B3/GpL16-k0 (=100).

As for B2, the He/Con_3a is 109 % of GpH7-A5/GpH7-B3/GpL16-k0 (=100). For B3, the He/Con_3a was 108 % of GpH7-A5/GpH7-B3/GpL16-k0 (=100). The result for B4 reads 108 % of GpH7-A5/GpH7-B3/GpL16-k0 (=100). The result for B5 reads 135 % of GpH7-A5/GpH7-B3/GpL16-k0 (=100); that for B6, 105 % of GpH7-A5/GpH7-B3/GpL16-k0 (=100); that for B7, 102 % of GpH7-A5/GpH7-B3/GpL16-k0 (=100). Consider B8, for which the He/Con_3a was 102 % of GpH7-A5/GpH7-B3/GpL16-k0 (=100). As for B9, the figure is 113 % of GpH7-A5/GpH7-B3/GpL16-k0 (=100); as for B10, 101 % of GpH7-A5/GpH7-B3/GpL16-k0 (=100). As for B11, the He/Con_3a is 105 % of GpH7-A5/GpH7-B3/GpL16-k0 (=100). For B12, the He/Con_3a is 102 % of GpH7-A5/GpH7-B3/GpL16-k0 (=100). As for B13, the figure is 103 % of GpH7-A5/GpH7-B3/GpL16-k0 (=100); as for B14, 102 % of GpH7-A5/GpH7-B3/GpL16-k0 (=100).
